Test results from paper PMC8844822, “SARM1 is a multi-functional NAD(P)ase with prominent base exchange activity, all regulated bymultiple physiologically relevant NAD metabolites” (iScience, 2022).

Tested on: T1, NC(=O)c1ccc[n+]([C@@H]2O[C@H](COP(=O)([O-])OP(=O)(O)OC[C@H]3O[C@@H](n4cnc5c(N)ncnc54)[C@H](O)[C@@H]3O)[C@@H](O)[C@H]2O)c1
T1 construct: a soluble fragment Val43-Ile300 with 6x-His tag at C terminus; 6xHis (C); purchased R&D Systems
Test: NAD(P)ase activity by HPLC (kinetics, substrates, metal ions)
Assay type: biochemical, human
Conditions: other: hCD38, substrate as labelled, 25°C, pH 7.5
Method: hSARM1 species were routinely assayed by the NAD/NADH-Glo^TM Assay (Promega) while both Aplysia cyclase and CD38 were assayed by fluorometry using ϵNAD ([Orsomando et al., 2000]). […] Other reagents used in addition to, or in place of those above are detailed in text or in figure legends, for example metal ions, free bases, dinucleotide analogues, mononucleotides, and ribosides. Assays were all carried out at 25°C except for temperature studies. Reactions were stopped by HClO4/K2CO3 and analysed by C18-HPLC as reported ([Mori et al., 2014]). Only the acid labile NADH and NADPH were treated with 1 N NaOH and neutralized using 1:1 vol of 1.73 M KH2CO3 while the highly hydrophobic metabolites vacor, VAD, VMN and VR, were analysed by a modified C18-HPLC method ([Buonvicino et al., 2018]). Reaction products were quantified from peak areas (see Figure 2A) based on coelution with standards (except for cyclic products from NAD analogues that were not available and were attributed based on UV-spectra and retention times as predicted). Rates were calculated as follows. Hydrolysis and cyclization were measured from product generation from the respective individual dinucleotide substrate used, e.g., free and cyclic ADP-ribosyl moieties from NAD (Figure 1B). A basal value for hydrolysis/cyclization was taken as sum of these latter two products. […]

human CD38 (Homo sapiens) gave a Km of 10.4 ± 2.90 µM and a Vmax of 6.65 µmol/min/mg.
